# Results published in publication PMC8288147.
# Molecular target: Hepatitis B Surface Antigen (HBsAg) SpyCatcher nanoparticles (Hepatitis B virus)
# Experiment: covalent SpyTag/SpyCatcher conjugation shown by reduced SDS-PAGE
substance,measurement,value
RBD-SpyTag (SARS-CoV-2 receptor binding domain fused to the SpyTag peptide) (from UniProt P0DTC2) (domain or fragment),fraction unconjugated,< 20%
